Entries after “also recorded” stand apart in the source; their conditions may differ.
Assays:
creatine kinase (CK) = test: Creatine kinase (CK-NAC) assay of blood samples of AH130 tumour rats; format: in vivo, rat; conditions: 1 μg/g bodymass s.c. twice daily for 6 d, day 6, FIG. 19
Experimental: The ascites hepatoma 130 (AH130) was obtained as a gift from Dr Vicki Baracos (University of Alberta, Edmonton, Alberta, Canada) and stored in cryovials in liquid nitrogen in a solution of 50% DMSO and 10% BSA. An aliquot was retrieved and thawed and 1 ml was injected i.p. into each of three donor rats and allowed to grow for seven days. The rats were killed by CO2 asphyxiation followed by cervical dislocation. The ascites was harvested and 100 μl was injected i.p. into each of 14 recipient male rats (280±6 g). An equal volume of saline was injected i.p. into seven control rats. Of the 14 rats inoculated with the AH130 tumour, seven were injected s.c. twice daily with roMSV47 at a dose of 1 μg/g body mass diluted in sterile saline to a volume of 1 ml. […] The volume of ascites in the peritoneal cavity was removed with a syringe and the volume recorded. Six muscles in the right hind limb (biceps femoris, gastrocnemius, soleus, plantaris, tibialis anterior and quadriceps femoris) were excised and their mass recorded.
CK-NAC was assayed in a commercial kit (Randox laboratories Ltd, UK). Reaction volumes were scaled down proportionately so that the assays could be performed in 96-well microtitre plates with samples assayed in triplicate (CK-NAC) and read as a change in U/L per min as per manufacturer's instructions.

p21 = p21 protein in proliferating C2C12 myoblasts (Western blot); format: cell-based, murine; conditions: 0.1, 1, 10 μg/ml, 48 h, FIG. 6
Experimental: Thus, a decrease in p21 protein expression may indicate an increased cell proliferation rate. PCNA is a positive marker of cell proliferation. It is a subunit of DNA polymerase-delta during DNA replication in the cell cycle. Higher level of PCNA protein expression is associated with higher number of cells entering the DNA replication phase of the cell cycle.
C2C12 myoblasts were seeded in 10 cm diameter tissue culture plates (Nunc, Roskilde, Denmark) at a cell density of 3000 cells per cm^2 in 10 ml of Dulbecco's modified Eagle's medium (DMEM, Invitrogen, California) supplemented with foetal bovine serum (FBS, 10% v/v, Invitrogen), penicillin (1×105 IU/l, Sigma, St Louis, Mo., USA) and streptomycin (100 mg/l, Sigma) buffered with NaHCO3 containing phenol red (7.22 nmol/l) as a pH indicator, and incubated overnight at 37° C. with 5% CO2. The medium was replaced with the test medium: DMEM with 10% FBS supplemented with, 0.1, 1 or 10 μg/ml oMSV65 (n=3). The plates were then incubated at 37° C. with 5% CO2 for 48 hours. Cells were removed from the plate by trypsin treatment, washed with phosphate buffered saline (PBS, Oxoid, UK) and resuspended in 100 μl of lysis buffer (10 mM Hepes pH 7.9, 1.5 mM MgCl2, 10 mM KCl, 0.5% NP40, one Complete protease inhibitor tablet [Roche Diagnostics, USA] per 50 ml buffer). […] Band intensities were measured with a GS800 densitometer (BioRad, USA).

primary ovine myoblasts = test: Proliferation assay of primary ovine myoblasts (methylene blue); format: cell-based; conditions: roMSV65 0 to 10 μg/ml, 72 h, FIG. 3B
Experimental: Myoblasts were seeded in 96-well tissue culture plates (Nunc, Roskilde, Denmark) at a cell density of 1000 cells per well in 200 μl of Dulbecco's modified Eagle's medium (DMEM, Invitrogen, California) supplemented with foetal bovine serum (FBS, 10% v/v, Invitrogen), penicillin (1×10^5 IU/l, Sigma, St Louis, Mo., USA) and streptomycin (100 mg/l, Sigma) buffered with NaHCO3 containing phenol red (7.22 nmol/l) as a pH indicator, and incubated overnight at 37° C. with 5% CO2. Medium was replaced with DMEM 10% FBS test medium containing 0, 0.001, 0.003, 0.01, 0.03, 0.1, 0.3, 1, 3 or 10 μg/ml oMSV65 in a semi-random arrangement of eight replicates (n=8) for each test medium. Plates were incubated at 37° C. with 5% CO2 for 72 hours, and then the medium was removed. The wells were washed with 200 μl of phosphate buffered saline (PBS, Oxoid, UK) and fixed with 100 μl of 10% formaldehyde, 0.9% NaCl solution for at least one hour. The fixative was then removed and 100 μl of 1% methylene blue stain in 0.01 M borate buffer (pH 8.5) was added to each well and incubated for 30 min at room temperature. Excess stain was removed by four sequential washes in borate buffer. Methylene blue was eluted from the cells by the addition of 100 μl 1:1 (v/v) ethanol/0.1 HCl. The plates were gently shaken and the absorbance was measured at 655 nm using a microplate photometer (FIGS. 3a and 3b).

roMSV47: 47 amino acid C-terminal mature ovine MSV fragment (SEQ ID NO: 50), recombinant from E. coli (IIFLEVYIQFCSILGEAVFKRQSKSIHFCQNFKIIACLCNTAAFRMK; Ovis aries)
concentrations of creatine kinase (CK) (creatine kinase (CK)): partially restores concentrations of CK; also recorded: not as markedly reduced

B1: roMSV65: 65 amino acid C-terminal peptide of ovine MSV (SEQ ID NO: 49) expressed as recombinant protein in E. coli (protein)
chain: VHFYTPPYGQWIFHKERKIIFLEVYIQFCSILGEAVFKRQSKSIHFCQNFKIIACLCNTAAFRMK
modifications: Ovis aries
p21 protein levels in proliferating C2C12 myoblasts (p21): dose-dependently decreases p21 protein levels
myoblast cell growth (proliferation) (primary ovine myoblasts): stimulate myoblast cell growth in a dose dependent manner

— patent US8455448B2, “Myostatin isoform” (Myostin Therapeutics Pty Ltd, priority 2004, dated 2013)
